For one assay, the target named is p85α nSH2, 325-430 (UniProt P27986). In words: fluorescence polarization titration. The note with it: reference: unphosphorylated p85β peptide; sites Y599.
A further assay addresses p85β nSH2, 312-425 (UniProt O08908). In words: fluorescence polarization titration. The note with it: reference: unphosphorylated p85β peptide; sites Y599.

The values that follow come from article doi:10.1101/791277.

p85α nSH2, 325-430, sequence (P27986 whole entry, looked up, tested part not stated): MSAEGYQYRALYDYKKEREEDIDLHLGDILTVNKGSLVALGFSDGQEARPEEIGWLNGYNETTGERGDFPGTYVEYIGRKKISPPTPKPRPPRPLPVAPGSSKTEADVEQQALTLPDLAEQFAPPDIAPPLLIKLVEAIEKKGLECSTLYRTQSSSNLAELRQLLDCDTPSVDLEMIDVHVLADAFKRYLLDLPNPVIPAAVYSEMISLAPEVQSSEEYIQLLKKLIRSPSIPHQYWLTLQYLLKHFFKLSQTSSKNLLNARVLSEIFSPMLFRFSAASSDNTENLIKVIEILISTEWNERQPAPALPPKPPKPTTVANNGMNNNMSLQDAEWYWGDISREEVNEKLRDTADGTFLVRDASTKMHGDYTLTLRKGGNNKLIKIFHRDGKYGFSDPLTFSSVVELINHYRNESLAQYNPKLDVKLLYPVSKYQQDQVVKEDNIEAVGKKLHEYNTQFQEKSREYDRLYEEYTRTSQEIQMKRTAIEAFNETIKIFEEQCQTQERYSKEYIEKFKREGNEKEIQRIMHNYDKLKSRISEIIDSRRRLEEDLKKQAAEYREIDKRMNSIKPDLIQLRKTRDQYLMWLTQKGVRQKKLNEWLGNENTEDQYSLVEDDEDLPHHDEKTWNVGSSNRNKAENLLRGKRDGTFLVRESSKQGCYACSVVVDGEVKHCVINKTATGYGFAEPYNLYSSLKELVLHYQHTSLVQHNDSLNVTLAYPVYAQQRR
p85β, sequence (O08908 312-425, change not shown): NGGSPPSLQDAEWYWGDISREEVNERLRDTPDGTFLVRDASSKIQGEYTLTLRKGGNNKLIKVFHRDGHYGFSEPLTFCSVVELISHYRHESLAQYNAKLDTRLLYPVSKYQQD
p85β nSH2, 312-425, sequence (O08908 whole entry, looked up, tested part not stated): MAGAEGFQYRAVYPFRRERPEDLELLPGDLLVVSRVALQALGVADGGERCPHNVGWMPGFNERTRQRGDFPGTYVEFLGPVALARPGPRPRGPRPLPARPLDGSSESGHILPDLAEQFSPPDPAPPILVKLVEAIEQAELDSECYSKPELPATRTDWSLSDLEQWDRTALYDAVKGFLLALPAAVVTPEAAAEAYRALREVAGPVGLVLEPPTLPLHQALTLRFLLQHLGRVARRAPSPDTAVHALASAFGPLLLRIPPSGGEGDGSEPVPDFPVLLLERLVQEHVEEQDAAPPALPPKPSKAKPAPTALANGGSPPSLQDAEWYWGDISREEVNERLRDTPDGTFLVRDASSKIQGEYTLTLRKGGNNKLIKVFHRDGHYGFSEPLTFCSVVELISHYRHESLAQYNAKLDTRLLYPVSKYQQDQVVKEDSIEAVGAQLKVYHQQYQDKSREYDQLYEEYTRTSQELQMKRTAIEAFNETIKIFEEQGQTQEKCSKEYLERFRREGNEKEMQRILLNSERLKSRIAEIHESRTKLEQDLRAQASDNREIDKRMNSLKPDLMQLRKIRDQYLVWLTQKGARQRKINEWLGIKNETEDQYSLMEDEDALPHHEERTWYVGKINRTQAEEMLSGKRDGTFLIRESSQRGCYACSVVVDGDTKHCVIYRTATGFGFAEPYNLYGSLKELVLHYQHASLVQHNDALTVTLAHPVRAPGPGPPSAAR

With “p85β (from UniProt O08908) phospho-p85β peptide”, the “binding against the reference” value with p85α nSH2, 325-430 is reported as “gained”; with p85β nSH2, 312-425, “gained”.
